{
  "source": "patent US9551711B2",
  "about": "“Compositions and methods for detecting nitration of PKG-1α and methods of use thereof” (Augusta University Research Institute, Inc., priority 2013, dated 2017)",
  "molecules": {"B1": {"name": "WT-PKG-1α + SIN1: WT-PKG-1α immunopurified from cells exposed to SIN-1 (500 μM, 30 min) (protein)", "chain": "SELEEDFAKILMLKEERIKELEKRLSEKEEEIQELKRKLHKCQSVLPVPSTHIGPRTTRAQGISAEPQTYRSFHDLRQAFRKFTKSERSKDLIKEAILDNDFMKNLELSQIQEIVDCMYPVEYGKDSCIIKEGDVGSLVYVMEDGKVEVTKEGVKLCTMGPGKVFGELAILYNCTRTATVKTLVNVKLWAIDRQCFQTIMMRTGLIKHTEYMEFLKSVPTFQSLPEEILSKLADVLEETHYENGE[Tyr(3-NO2)]IIRQGARGDTFFIISKGTVNVTREDSPSEDPVFLRTLGKGDWFGEKALQGEDVRTANVIAAEAVTCLVIDRDSFKHLIGGLDDVSNKAYEDAEAKAKYEAEAAFFANLKLSDFNIIDTLGVGGFGRVELVQLKSEESKTFAMKILKKRHIVDTRQQEHIRSEKQIMQGAHSDFIVRLYRTFKDSKYLYMLMEACLGGELWTILRDRGSFEDSTTRFYTACVVEAFAYLHSKGIIYRDLKPENLILDHRGYAKLVDFGFAKKIGFGKKTWTFCGTPEYVAPEIILNKGHDISADYWSLGILMYELLTGSPPFSGPDPMKTYNIILRGIDMIEFPKKIAKNAANLIKKLCRDNPSERLGNLKNGVKDIQKHKWFEGFNWEGLRKGTLTPPIIPSVASPTDTSNFDSFPEDNDEPPPDDNSGWDIDF"}},
  "key": {"[1]": {"biological_target": "PKG-1α", "experiment": "[3H]cGMP binding assay on immunopurified PKG-1α", "design": "species or system human", "details": "[3H]cGMP 0-200 nM, 100 ng immunopurified enzyme; average affinity of the two cGMP-binding sites; + SIN1 = cells exposed to SIN-1 500 μM, 30 min", "protocol": "HEK-293T cells were transiently transfected with either the WT-PKG-1α or the Y247FPKG-1α cDNA using Effectene transfection reagent (Qiagen), according to the manufacturer's instructions. Briefly, the cells were split the day before the transfection to low cell densities (25%) and were transfected 24 h later. After 48 h of transfection, the cells were incubated in DMEM serum free media containing 1% FBS and antibiotics for 4 h and then treated with or without SIN-1 (500 μM), for 30 min. This method produced an approximate 70% transfection efficiency of HEK-293T cells, as measured using green fluorescent protein vectors. […]\nThe batches of supernatant were pooled, and 2 μg of anti-PKG-1α antibody per mg of protein were added to the extract and rocked at 4° C. […] After 15 min of agitation at 4° C., the beads were pelleted by centrifugation, and the supernatant containing the PKG-1α protein was collected, quantified using Bradford reagent, and stored at −80° C.\nTo assay the binding of cGMP to WT- and Y247F-PKG-1α the enzymes were saturated with cGMP by incubating 50 μl aliquots of the diluted PKG constructs for 60 min at room temperature with 50 μl of [^3H]cGMP and 150 μl of cGMP-binding assay mixture (25 mM K2HPO4, 25 mM KH2PO4, 1 mM EDTA, pH 6.8, 2M NaCl, 200 μM 3-isobutyl-1-methylxanthine). […] The dissociation constant (Kd) values were determined using GraphPad Prism graphics. […]"}, "[2]": {"tested_on": "PKG-1α", "experiment": "PKG catalytic activity, Michaelis-Menten kinetics for cGMP", "type": "biochemical, human", "details": "ATP 125 μM, cGMP 0-10 μM; + SIN1 = SIN-1 500 μM, 30 min", "protocol": "Total PKG activity was determined using a non-radioactive immunoassay in cell lysates, according to the manufacturer's directions. Briefly, protein samples were diluted in kinase reaction buffer containing Mg^2+ and ATP (125 μM) in the presence or absence of 8-Br cGMP (10 μM) and incubated in a 96 well plate pre-coated with a PKG substrate containing threonine residues phosphorylated by PKG.\nAfter incubation for 30 min at 30° C. to allow the phosphorylation of the bound substrate, an HRP conjugated anti-phosphothreonine specific antibody was added to convert a chromogenic substrate to a colorimetric substrate that was subsequently read spectrophotometrically at 450 nm. The change in absorbance reflected the relative activity of PKG in the sample. The results were reported as pmols of phosphate incorporated into the GST-G substrate fusion protein by active PKG in the sample in the presence or absence of cGMP (10 μM) per minute at 30° C. per μg of protein (pmol/min/μg). […] The kinetic constants were determined using nonlinear regression (curve fit) analysis (GraphPad Prism Software Inc.).\nTo determine the Michaelis-Menten constant (Km) for cGMP, the kinase assay was performed, as mentioned above; however, the cGMP concentration was titrated from 0-10 μM, while the ATP concentration remained constant at 125 μM."}},
  "note": "Non-standard residues stand in square brackets, D forms with d. Tyr(3-NO2) = N[C@@H](Cc1ccc(O)c([N+](=O)[O-])c1)C(=O)O",
  "data": [
    {"molecule": "B1", "values": [
      {"measurement": "Kd", "setting": "[1]", "result": "0.0321 ± 0.0055", "unit": "µM"},
      {"measurement": "Vmax", "setting": "[2]", "result": "0.28 ± 0.01", "unit": "pmol/min/µg"}
    ]}
  ]
}
